Columns and labels:
Assay in all cases: SPR, mAb 1B7 immobilised ~1000 RU
PTx-S1-220 Y166A = target: T1, PTx-S1-220 Y166A (Bordetella pertussis strain Tohama I, UniProt P04977 36-255, Y166A)
T1 sequence: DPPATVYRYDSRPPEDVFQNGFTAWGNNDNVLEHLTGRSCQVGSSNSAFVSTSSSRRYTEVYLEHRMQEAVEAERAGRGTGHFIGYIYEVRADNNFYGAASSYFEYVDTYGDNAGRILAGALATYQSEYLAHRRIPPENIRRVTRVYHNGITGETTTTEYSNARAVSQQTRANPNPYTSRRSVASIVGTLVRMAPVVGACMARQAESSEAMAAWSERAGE

PTx-S1-220 T159A = target: T2, PTx-S1-220 T159A (Bordetella pertussis strain Tohama I, UniProt P04977 36-255, T159A)
T2 sequence: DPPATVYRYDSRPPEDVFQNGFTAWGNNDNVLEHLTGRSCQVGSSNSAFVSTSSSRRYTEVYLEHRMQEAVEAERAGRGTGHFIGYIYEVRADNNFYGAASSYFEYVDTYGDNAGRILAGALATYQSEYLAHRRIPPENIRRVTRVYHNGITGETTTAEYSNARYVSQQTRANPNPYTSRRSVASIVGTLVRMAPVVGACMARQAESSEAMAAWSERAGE

PTx-S1-220 T81A = target: T3, PTx-S1-220 T81A (Bordetella pertussis strain Tohama I, UniProt P04977 36-255, T81A)
T3 sequence: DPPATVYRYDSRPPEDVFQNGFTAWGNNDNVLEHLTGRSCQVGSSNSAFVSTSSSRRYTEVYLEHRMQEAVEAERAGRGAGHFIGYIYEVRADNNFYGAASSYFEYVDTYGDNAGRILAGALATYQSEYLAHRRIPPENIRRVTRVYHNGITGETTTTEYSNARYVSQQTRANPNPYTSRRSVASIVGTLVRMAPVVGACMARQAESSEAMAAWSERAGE

PTx-S1-220 N176A = target: T4, PTx-S1-220 N176A (Bordetella pertussis strain Tohama I, UniProt P04977 36-255)
T4 chain: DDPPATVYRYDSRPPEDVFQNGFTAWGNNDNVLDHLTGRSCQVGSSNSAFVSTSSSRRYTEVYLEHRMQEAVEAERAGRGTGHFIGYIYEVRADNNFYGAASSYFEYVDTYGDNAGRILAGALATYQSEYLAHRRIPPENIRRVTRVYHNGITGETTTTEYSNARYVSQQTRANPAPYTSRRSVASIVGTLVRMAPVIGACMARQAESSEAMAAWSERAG

PTx-S1-220 R79A = target: T5, PTx-S1-220 R79A (Bordetella pertussis strain Tohama I, UniProt P04977 36-255, R79A)
T5 sequence: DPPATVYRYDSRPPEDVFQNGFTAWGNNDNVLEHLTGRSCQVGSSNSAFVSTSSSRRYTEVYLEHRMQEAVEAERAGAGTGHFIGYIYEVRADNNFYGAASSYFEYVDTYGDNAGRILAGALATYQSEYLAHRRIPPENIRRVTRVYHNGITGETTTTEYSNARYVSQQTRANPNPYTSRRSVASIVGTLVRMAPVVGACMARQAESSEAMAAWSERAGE

PTx-S1-220 E155A = target: T6, PTx-S1-220 E155A (Bordetella pertussis strain Tohama I, UniProt P04977 36-255, E155A)
T6 sequence: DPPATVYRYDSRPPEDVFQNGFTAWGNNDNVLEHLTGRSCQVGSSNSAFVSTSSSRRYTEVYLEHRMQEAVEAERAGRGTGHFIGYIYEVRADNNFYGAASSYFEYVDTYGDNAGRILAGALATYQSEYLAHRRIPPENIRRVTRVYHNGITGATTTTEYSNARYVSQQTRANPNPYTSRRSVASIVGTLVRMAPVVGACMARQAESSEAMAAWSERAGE

PTx-S1-220 E210A = target: T7, PTx-S1-220 E210A (Bordetella pertussis strain Tohama I, UniProt P04977 36-255, E210A)
T7 sequence: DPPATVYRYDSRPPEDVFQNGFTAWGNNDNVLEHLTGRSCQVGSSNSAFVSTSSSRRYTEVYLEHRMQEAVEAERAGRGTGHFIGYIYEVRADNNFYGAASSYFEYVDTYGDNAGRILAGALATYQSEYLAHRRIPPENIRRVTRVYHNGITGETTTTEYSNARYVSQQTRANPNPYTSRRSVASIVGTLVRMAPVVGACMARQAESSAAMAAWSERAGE

PTx-S1-220 T158A = target: T8, PTx-S1-220 T158A (Bordetella pertussis strain Tohama I, UniProt P04977 36-255, T158A)
T8 sequence: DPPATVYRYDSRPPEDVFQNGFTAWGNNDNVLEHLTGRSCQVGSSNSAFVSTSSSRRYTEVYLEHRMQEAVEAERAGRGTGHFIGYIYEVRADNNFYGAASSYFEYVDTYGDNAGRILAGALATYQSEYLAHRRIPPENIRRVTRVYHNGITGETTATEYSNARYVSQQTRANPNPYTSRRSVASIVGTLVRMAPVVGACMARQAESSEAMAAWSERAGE

PTx-S1-220 H83A = target: T9, PTx-S1-220 H83A (Bordetella pertussis strain Tohama I, UniProt P04977 36-255, H83A)
T9 sequence: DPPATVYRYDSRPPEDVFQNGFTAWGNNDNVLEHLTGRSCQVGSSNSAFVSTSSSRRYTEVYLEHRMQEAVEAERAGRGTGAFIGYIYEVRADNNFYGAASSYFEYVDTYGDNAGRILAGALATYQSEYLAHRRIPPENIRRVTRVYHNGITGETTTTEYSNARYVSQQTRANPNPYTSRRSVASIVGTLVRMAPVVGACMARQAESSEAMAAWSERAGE

PTx-S1-220 E16A = target: T10, PTx-S1-220 E16A (Bordetella pertussis strain Tohama I, UniProt P04977 36-255, E16A)
T10 sequence: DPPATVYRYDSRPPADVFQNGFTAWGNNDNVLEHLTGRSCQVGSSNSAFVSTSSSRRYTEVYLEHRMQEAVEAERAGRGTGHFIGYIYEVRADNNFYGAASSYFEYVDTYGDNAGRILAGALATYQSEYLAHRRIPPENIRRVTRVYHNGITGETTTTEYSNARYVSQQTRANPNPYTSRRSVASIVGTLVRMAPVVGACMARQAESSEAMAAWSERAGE

B1: monoclonal antibody 1B7 (antibody)
chain: DIQMTQSPALMSASPGEKVTMTCSASSSVSFMYWYQQKPRSSPKPWIYLTSNLPSGVPARFSGSGSGTSYSLTISSMEAEDAATYYCQQWSSHPPTFGSGTKLEIKRGGGGSGGGGSGGGGSGGGGSEVQLQQSGSELVRPGASVKLSCKASGYKFTSYWMHWVKQRPGQGLEWIGNIFPGSGSTNYDEKFNSKATLTVDTSSNTAYMQLSSLTSEDSAVYYCTRWLSGAYFDYWGQGTTLTVSSASGA
notes: also called mAb 1B7; 1B7 mAb
Question: How did the koff (PTx-S1-220 Y166A) turn out when B1 was run?
Answer: The koff was 0.0014 s⁻¹.

Question: And the koff (PTx-S1-220 T159A)?
Answer: The koff was 0.0014 s⁻¹.

Question: And the koff (PTx-S1-220 T81A)?
Answer: The koff was 0.0017 s⁻¹.

Question: What about the koff (PTx-S1-220 N176A) of the same binder?
Answer: Its koff is 0.0011 s⁻¹.

Question: And the koff (PTx-S1-220 R79A)?
Answer: Its koff is 0.025 s⁻¹.

Question: And the koff (PTx-S1-220 E155A)?
Answer: Its koff is 0.0011 s⁻¹.

Question: What about the koff (PTx-S1-220 E210A) of the same binder?
Answer: Its koff is 0.0016 s⁻¹.

Question: And the koff (PTx-S1-220 T158A)?
Answer: Its koff is 0.0013 s⁻¹.

Question: What about the koff (PTx-S1-220 H83A) of the same binder?
Answer: The koff was 0.01 s⁻¹.

Question: What about the koff (PTx-S1-220 E16A) of the same binder?
Answer: The koff was 0.0016 s⁻¹.
